Like-named read-outs stand apart in the source and are kept apart here. One block for each molecule: values may come before it.
Columns and labels:
Assay in all cases: SPR
[1] = molecular target: mFcγRII extracellular domain from SCID mice (ly17.2 variant), 6xHis (mouse) (UniProt P08101)
[2] = molecular target: mFcγRII extracellular domain from NOD SCID mice (ly17.1 variant), 6xHis (mouse) (UniProt P08101)
mIgG2a #2 (mouse) [3] = molecular target: mIgG2a #2 (mouse)
hIgG2 #2 (human) [4] = molecular target: hIgG2 #2 (human)
hIgG1 #1 (human) [5] = molecular target: hIgG1 #1 (human)
mIgG1 #1 (mouse) [6] = molecular target: mIgG1 #1 (mouse)
mIgG2a #1 (mouse) [7] = molecular target: mIgG2a #1 (mouse)
hIgG1 #2 (human) [8] = molecular target: hIgG1 #2 (human)
hIgG2 #1 (human) [9] = molecular target: hIgG2 #1 (human)
mIgG1 #2 (mouse) [10] = molecular target: mIgG1 #2 (mouse)
mIgG2a #2 (mouse) [11] = molecular target: mIgG2a #2 (mouse); remark: listed apart in the source
hIgG2 #2 (human) [12] = molecular target: hIgG2 #2 (human); remark: listed apart in the source
hIgG1 #1 (human) [13] = molecular target: hIgG1 #1 (human); remark: listed apart in the source
mIgG1 #1 (mouse) [14] = molecular target: mIgG1 #1 (mouse); remark: listed apart in the source
mIgG2a #1 (mouse) [15] = molecular target: mIgG2a #1 (mouse); remark: listed apart in the source
hIgG1 #2 (human) [16] = molecular target: hIgG1 #2 (human); remark: listed apart in the source
hIgG2 #1 (human) [17] = molecular target: hIgG2 #1 (human); remark: listed apart in the source
mIgG1 #2 (mouse) [18] = molecular target: mIgG1 #2 (mouse); remark: listed apart in the source

Sequence of UniProt P08101 (P08101 1-207, change not shown): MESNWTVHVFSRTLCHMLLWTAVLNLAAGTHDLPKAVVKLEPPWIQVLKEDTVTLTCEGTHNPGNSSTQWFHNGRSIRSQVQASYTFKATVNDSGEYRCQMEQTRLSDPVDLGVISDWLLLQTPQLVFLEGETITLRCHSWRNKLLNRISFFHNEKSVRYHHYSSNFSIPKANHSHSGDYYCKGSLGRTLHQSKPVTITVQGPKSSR

Kd [1]: 5.42 µM
Kd [2]: 4.38 µM
Molecule: Cetuximab (hIgG1) (antibody)

Kd [1]: 2.63 µM
Kd [2]: 2.43 µM
Molecule: Rituximab mIgG2a (antibody)

Kd [1]: 2.02 µM
Kd [2]: 2.25 µM
Molecule: Rituximab mIgG1 (antibody)

Kd (mIgG2a #2 (mouse) [3]): 0.0241 µM
Kd (hIgG2 #2 (human) [4]): 0.218 µM
Kd (hIgG1 #1 (human) [5]): 0.0492 µM
Kd (mIgG1 #1 (mouse) [6]): 0.00277 µM
Kd (mIgG2a #1 (mouse) [7]): 0.0236 µM
Kd (hIgG1 #2 (human) [8]): 0.079 µM
Kd (hIgG2 #1 (human) [9]): 0.21 µM
Kd (mIgG1 #2 (mouse) [10]): 0.00362 µM
Kd (mIgG2a #2 (mouse) [11]): 1.1 µM
Kd (hIgG2 #2 (human) [12]): 14.5 µM
Kd (hIgG1 #1 (human) [13]): 3.02 µM
Kd (mIgG1 #1 (mouse) [14]): 0.274 µM
Kd (mIgG2a #1 (mouse) [15]): 1.18 µM
Kd (hIgG1 #2 (human) [16]): 6.61 µM
Kd (hIgG2 #1 (human) [17]): 7.65 µM
Kd (mIgG1 #2 (mouse) [18]): 0.498 µM
B1: Recombinant mFcγRII (R&D systems) (receptor)
chain: THDLPKAVVKLEPPWIQVLKEDTVTLTCEGTHNPGNSSTQWFHNGRSIRSQVQASYTFKATVNDSGEYRCQMEQTRLSDPVDLGVISDWLLLQTPQLVFLEGETITLRCHSWRNKLLNRISFFHNEKSVRYHHYSSNFSIPKANHSHSGDYYCKGSLGRTLHQSKPVTITVQGPKSSRSLP

Source: paper PMC7304853
